Experimental data: IntAct's records for PubMed 19478065

B1: Chaperone protein IpgC (Shigella flexneri), P0A2U4 (parent)
chain: MSLNITENESISTAVIDAINSGATLKDINAIPDDMMDDIYSYAYDFYNKGRIEEAEVFFRFLCIYDFYNVDYIMGLAAIYQIKEQFQQAADLYAVAFALGKNDYTPVFHTGQCQLRLKAPLKAKECFELVIQHSNDEKLKIKAQSYLDAIQDIKE
partner: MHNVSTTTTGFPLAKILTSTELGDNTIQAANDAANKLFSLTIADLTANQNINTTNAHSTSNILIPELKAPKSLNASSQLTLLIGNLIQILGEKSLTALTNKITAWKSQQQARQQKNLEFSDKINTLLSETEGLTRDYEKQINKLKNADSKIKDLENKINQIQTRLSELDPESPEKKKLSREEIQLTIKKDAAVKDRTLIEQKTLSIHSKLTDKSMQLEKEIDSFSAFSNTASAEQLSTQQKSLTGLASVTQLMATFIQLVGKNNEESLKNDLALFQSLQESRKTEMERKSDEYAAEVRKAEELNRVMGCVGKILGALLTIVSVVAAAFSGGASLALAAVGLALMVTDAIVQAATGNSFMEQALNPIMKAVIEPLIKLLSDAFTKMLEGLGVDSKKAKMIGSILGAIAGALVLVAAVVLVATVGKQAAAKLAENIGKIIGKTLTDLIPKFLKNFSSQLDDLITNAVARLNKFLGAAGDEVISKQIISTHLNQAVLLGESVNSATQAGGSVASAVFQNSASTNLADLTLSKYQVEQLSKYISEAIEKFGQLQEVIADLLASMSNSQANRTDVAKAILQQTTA
B2: Type 3 secretion system translocon protein SctE (Shigella flexneri), P18011 (parent)
chain: B1 partner

Variants of: B1
Details: with scte_shifl sctE

Row | Variant | effect of a mutation on the interaction
1 | S41M;Y44G;G75Q;A78M | disrupting interaction strength

Variants of: B2
Details: with ipgc_shifl ipgC

Row | Variant | effect of a mutation on the interaction
2 | L67N | disrupting interaction strength
3 | P70D | disrupting interaction strength
4 | K68A | decreasing interaction strength
5 | P65R | disrupting interaction strength
